Reference: patent publication US20090233319

Biological target: T1, recombinant ICAD protein, O00273
T1 chain: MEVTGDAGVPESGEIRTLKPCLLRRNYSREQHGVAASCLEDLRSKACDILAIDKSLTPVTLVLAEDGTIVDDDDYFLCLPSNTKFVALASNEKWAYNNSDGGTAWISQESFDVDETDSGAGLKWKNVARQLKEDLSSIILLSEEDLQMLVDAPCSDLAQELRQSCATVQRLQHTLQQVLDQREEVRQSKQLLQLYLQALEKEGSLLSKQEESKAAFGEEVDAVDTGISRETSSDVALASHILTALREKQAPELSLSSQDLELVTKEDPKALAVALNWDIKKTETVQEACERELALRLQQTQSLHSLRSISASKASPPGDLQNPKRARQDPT

B1: purified caspase-14 from human cornified cells (heterodimer of large subunit 17 KDa and small subunit 11 KDa) (protein)
chain 1: SLEEEKYDMSGARLALILCVTKAREGSEEDLDALEHMFRQLRFESTMKRDPTAEQFQEELEKFQQAIDSREDPVSCAFVVLMAHGREGFLKGEDGEMVKLENLFEALNNKNCQALRAKPKVYIIQACRGEQRDPGETVGGD
chain 2: KDSPQTIPTYTDALHVYSTVEGYIAYRHDQKGSCFIQTLVDVFTKRKGHILELLTEVTRRMAEAELVQEGKARKTNPEIQSTLRKRLYLQ
ICAD decomposition by caspase-14 in the presence of a kosmotropic salt (Western blot with anti-ICAD IgG): intact ICAD protein was reduced and the two major decomposition products were increased, thus indicating that purified caspase-14 has a limited decomposing effect on ICAD
ICAD hydrolysis by caspase-14 in ordinary caspase assay buffer (Western blot with anti-ICAD IgG): showed absolutely no hydrolytic activity of the purified caspase-14 for ICAD
